Laboratory results taken from US5702914, “Use of reporter genes for retinoid receptor screening assays having novel retinoid-associated response elements” (The Salk Institute for Biological Studies).

B1: HOXB1 DR-2A (dsDNA)
DNA 1: TGAACTCTTGCCCT
DNA 2: AGGGCAAGAGTTCA
B2: HOXB1 DR-2B (dsDNA)
DNA 1: CGGGCCTGACCTTTTTACCTCGAAG
DNA 2: CTTCGAGGTAAAAAGGTCAGGCCCG

Tests used:
[1] = biological target: T1, RAR alpha:RXR alpha heterodimer (Homo sapiens, UniProt P10276;P19793 P10276:1-462,P19793:1-462); assay: EMSA; less intense than on DR-5; details: tags: rabbit reticulocyte lysate (Promega); from pCMX-hRARalpha and pCMX-hRXRalpha; label: 32P
T1 sequence (P10276 whole entry, chain 1 of 2): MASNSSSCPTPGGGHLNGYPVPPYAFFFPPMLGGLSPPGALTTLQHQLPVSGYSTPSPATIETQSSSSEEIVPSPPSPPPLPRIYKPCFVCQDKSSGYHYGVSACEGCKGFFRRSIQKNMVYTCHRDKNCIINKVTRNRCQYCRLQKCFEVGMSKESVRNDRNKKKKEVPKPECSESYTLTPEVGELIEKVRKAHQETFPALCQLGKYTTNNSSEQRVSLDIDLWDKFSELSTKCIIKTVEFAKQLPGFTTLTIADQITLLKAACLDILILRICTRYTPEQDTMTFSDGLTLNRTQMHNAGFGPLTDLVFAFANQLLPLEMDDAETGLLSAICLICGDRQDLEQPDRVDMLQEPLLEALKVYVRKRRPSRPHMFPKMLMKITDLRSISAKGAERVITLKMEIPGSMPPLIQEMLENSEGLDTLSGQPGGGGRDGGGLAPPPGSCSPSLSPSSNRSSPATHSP
T1 sequence (P19793 whole entry, chain 2 of 2): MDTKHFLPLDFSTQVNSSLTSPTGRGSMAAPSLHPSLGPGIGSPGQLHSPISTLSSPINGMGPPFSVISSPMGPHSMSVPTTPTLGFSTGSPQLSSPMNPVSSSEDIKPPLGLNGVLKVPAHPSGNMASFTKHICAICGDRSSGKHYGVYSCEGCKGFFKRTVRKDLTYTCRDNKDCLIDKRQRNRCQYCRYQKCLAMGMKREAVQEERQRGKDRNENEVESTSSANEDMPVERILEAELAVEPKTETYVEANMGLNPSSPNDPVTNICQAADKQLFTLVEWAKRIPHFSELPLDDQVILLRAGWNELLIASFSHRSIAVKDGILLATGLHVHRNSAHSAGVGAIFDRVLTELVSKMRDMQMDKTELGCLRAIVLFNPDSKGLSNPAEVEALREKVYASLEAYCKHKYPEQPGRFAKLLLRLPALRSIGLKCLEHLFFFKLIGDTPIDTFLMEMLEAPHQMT
Procedure: (§1) Gel retardation assays were carried out according to Kliewer et al. (1992, supra). The plasmids pCMX-hRARα and pCMX-hRXRα (Kliewer et al., 1992, supra) were linearlized and capped mRNA was synthesized in vitro using T7 RNA polymerase (Stratagene) according to manufacturer's instructions. Aliquots of mRNA were incubated with rabbit reticulocyte lysate (Promega) for in vitro translation. For gel retardation assay, 5 µl of in vitro translated proteins were preincubated in binding buffer (10 mM Tris[pH8.0], 40 mM KCl, 0.05% Nonidet P-40, 6% glycerol, 1 mM DTT, 5 µg/ml poly[dI.dC]) on ice for 15 minutes. For competition assays, 20 fold molar excess of competitor oligonucleotides was mixed at this step. Oligonucleotides containing DR-5 (RARβ2RARE), HOXB DR-2A (nucleotides 30–43 of SEQ ID NO:1) and HOXB DR-2B (nucleotides 41–54 of SEQ ID NO:2) were used as competitors and probes. Subsequently, ^32P-labelled oligonucleotide probes were added to the reaction mixtures and incubated on ice for 15 minutes. The same oligonucleotides used for the construction of luciferase plasmids were used. Reaction mixtures were resolved by 5% polyacrylamide gel electrophoresis in 0.5×TBE. The dried gels were autoradiographed at −70° C.
The ability of RAR and RXR to form either homo- or heterodimers on the HOXB1 DR-2A and DR-2B response elements was examined using gel retardation assays. […]

[2] = biological target: T1, RAR alpha:RXR alpha heterodimer; assay: EMSA; less intense than on DR-5; 74-fold RA induction of TK.Luc(DR2B)2 with both receptors in NT2/D1 cells; details: tags: rabbit reticulocyte lysate (Promega); from pCMX-hRARalpha and pCMX-hRXRalpha; label: 32P
Procedure: as §1, with “Aliquots” for “Gel retardation assays were carried out according to Kliewer et al. (1992, supra). The plasmids pCMX-hRARα and pCMX-hRXRα (Kliewer et al., 1992, supra) were linearlized and capped mRNA was synthesized in vitro using T7 RNA polymerase (Stratagene) according to manufacturer's instructions. Aliquots”
The ability of RAR and RXR to form either homo- or heterodimers on the HOXB1 DR-2A and DR-2B response elements was examined using gel retardation assays. The expression plasmids pCMX-hRARα and pCMX-hRXRα were linearized with NheI restriction enzyme. Subsequently, capped mRNA was synthesized in vitro using T7 RNA polymerase (Stratagene) according to the manufacturer's instructions. […]

Binder	binding result [1]	binding result [2]
B1	binds	–
B2	–	binds
